A short description of the data set: protein stability index of a GFP-peptide fusion (GPS, HEK-293T) (PSI 1-6); higher = more stable. As to conditions: c terminus: a fixed tail appended.

± gives the standard deviation.
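Note: 24-mer peptide tiles fused after GFP, lentivirally expressed, FACS-sorted into six equal bins by GFP/DsRed ratio, decoded by Illumina sequencing, PSI is the read-weighted mean bin number.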

With EDHIAHIIELLGSIPRHFALSGKY [SRPK2], the protein stability index is, setting by setting: (treatment: DMSO) 2.71 ± 0.4; (treatment: MLN4924 1 uM, 8 h) 2.63 ± 0.58.

With LESIPSLSQSPEPGRRGDPDTAPP [RTN2], the protein stability index amounted to 5.49 ± 0.12 (treatment: DMSO) and 5.535 ± 0.045 (treatment: MLN4924 1 uM, 8 h). Take SAPEQELLVQDATPVSNSLLPEKA [GFOD1]: the protein stability index (treatment: DMSO) was determined as 5.29 ± 0.28 and the protein stability index (treatment: MLN4924 1 uM, 8 h) worked out at 5.4 ± 0.26. RRGRMALCGQAAGAASLPSELIVH [FBXO33] came in with a protein stability index (treatment: DMSO) of 2.96 ± 0.25 and a protein stability index (treatment: MLN4924 1 uM, 8 h) of 2.78 ± 0.32. Sequence HGEEQRITIEPGTSYRLQGLKPNS [PTPRD] registered a protein stability index (treatment: DMSO) of 4.4 ± 0.18 and a protein stability index (treatment: MLN4924 1 uM, 8 h) of 4.67 ± 0.29. In the case of YLQDHEKKLRLVFKSLDKKNDGRI [SLC25A25], the protein stability index reads like this: (treatment: DMSO) 3.3 ± 0.13; (treatment: MLN4924 1 uM, 8 h) 3.43 ± 0.41. Regarding MASSPIQPRKGGADWLGLKDEDLD [FBF1], the protein stability index (treatment: DMSO) is 5.12 ± 0.37 and the protein stability index (treatment: MLN4924 1 uM, 8 h) turned out to be 5.07 ± 0.26.

With KPENISLRNKLRELCVKLMFLHPV [SMG5], the protein stability index is, setting by setting: (treatment: DMSO) 2.9 ± 0.52; (treatment: MLN4924 1 uM, 8 h) 3.06 ± 0.34. On to QRPFIRMSWEKEEGKSRHVDFQCV [BTBD10], for which the protein stability index is 2.95 ± 0.24 (treatment: DMSO) and 3.04 ± 0.37 (treatment: MLN4924 1 uM, 8 h). Take NCLTGEGEDTRLSASEMKQLIDNI [CIB1]: the protein stability index (treatment: DMSO) worked out at 4.67 ± 0.18 and the protein stability index (treatment: MLN4924 1 uM, 8 h) was found to be 4.74 ± 0.32. The like results for CQNKCRIALVENIPEGLNYSENAP [PLD5] were, in that order, 3.03 ± 0.45 and 3.23 ± 0.64. The like results for YIIQQGGWGTVFSLESEEEEYPGI [BCL2L13] were, in that order, 2.46 ± 0.36 and 2.9 ± 0.36.

Regarding LPLDDQVALLRAHAGEHLLLGATK [HNF4A], the protein stability index by setting is: (treatment: DMSO) 3.6 ± 0.19; (treatment: MLN4924 1 uM, 8 h) 3.63 ± 0.19. GRCGPQAARAAGRDVAAEAVARSP [POMT2]: the protein stability index was 4 ± 0.35 (treatment: DMSO) and 3.63 ± 0.15 (treatment: MLN4924 1 uM, 8 h). On to AVSTEDLKECLKKQLEFCFSRENL [LARP4], for which the protein stability index (treatment: DMSO) amounted to 2.65 ± 0.55 and the protein stability index (treatment: MLN4924 1 uM, 8 h) is 3.11 ± 0.68. For KYEQAFESSQKYKEGKYIIELNHM [YPEL3], in that order: 2.71 ± 0.1 and 2.87 ± 0.2. Regarding HYLIFDLVTGGELFEDIVAREYYS [CAMK2A], the protein stability index was found to be 2.71 ± 0.72 (treatment: DMSO) and 2.54 ± 0.66 (treatment: MLN4924 1 uM, 8 h).

As for AKRNRLAPAHVDEQVFLYENARSG [ZBED1], the protein stability index by setting is: (treatment: DMSO) 4.3 ± 0.59; (treatment: MLN4924 1 uM, 8 h) 4.43 ± 0.25. On to ADKMTAEEVDQMFQFASIDVAGNL [MYL5], for which the protein stability index came to 4.35 ± 0.41 (treatment: DMSO) and 4.47 ± 0.2 (treatment: MLN4924 1 uM, 8 h). For the sequence RMPLLTPRYITDVIDAEPFIRCSL [KLHL12], the protein stability index (treatment: DMSO) worked out at 2.27 ± 0.28 and the protein stability index (treatment: MLN4924 1 uM, 8 h) came out at 1.84 ± 0.52. In turn, NETKSQAFVSNSPKLFCPKNRSFD [PLD5] yielded a protein stability index (treatment: DMSO) of 4.21 ± 0.23 and a protein stability index (treatment: MLN4924 1 uM, 8 h) of 3.86 ± 0.54. With GANKEVQELLERGLLQLDHRGLRC [RSAD1], the protein stability index reads like this: (treatment: DMSO) 3.39 ± 0.12; (treatment: MLN4924 1 uM, 8 h) 3.66 ± 0.31. Regarding AIIISTIVLDRALHIPMYFFLAIL [OR10K2], the protein stability index (treatment: DMSO) amounted to 3.04 ± 0.47 and the protein stability index (treatment: MLN4924 1 uM, 8 h) amounted to 3.04 ± 0.33. In the case of NDVKHHRWFRSVDWEAVPQRKLKP [PRKX], the protein stability index worked out at 3.65 ± 0.19 (treatment: DMSO) and 3.6 ± 0.24 (treatment: MLN4924 1 uM, 8 h). In the case of SGRHPSHSTTPSGPGDEVARGIAG [ARFIP2], the protein stability index by setting is: (treatment: DMSO) 4.81 ± 0.13; (treatment: MLN4924 1 uM, 8 h) 4.62 ± 0.22. As to FNEQTWEVSQQDPSHGEVGEHKDR [ZSCAN9], the protein stability index is, setting by setting: (treatment: DMSO) 5.38 ± 0.26; (treatment: MLN4924 1 uM, 8 h) 5.35 ± 0.17.

As to VLPEDRILREELQKQRLREILEQQ [ZNF277], the protein stability index was determined as 4.63 ± 0.4 (treatment: DMSO) and 4.21 ± 0.41 (treatment: MLN4924 1 uM, 8 h). The like results for FVEEIKKLATQHKQLISQTKKKQW [ZMYND11] were, in that order, 2.73 ± 0.77 and 2.13 ± 0.33. Regarding GFTSYLGFGDEDTGLELIAEESNP [MIA2], the protein stability index (treatment: DMSO) worked out at 4.61 ± 0.22. Regarding RTFLETSTDTAVTNEWEKRLSTSP [EPB41L3], the protein stability index was determined as 4.17 ± 0.33 (treatment: DMSO) and 3.98 ± 0.2 (treatment: MLN4924 1 uM, 8 h). The like results for KPDKAVSIIECDMNVDFDAPLGYK [UFD1] were, in that order, 3.94 ± 0.34 and 4.21 ± 0.2. For the sequence QIPVTDSGRHILEDSCAELGESKE [SDE2], the protein stability index reads like this: (treatment: DMSO) 5.35 ± 0.12; (treatment: MLN4924 1 uM, 8 h) 5.19 ± 0.38. For VCTVQFLISKGANVNRTTANNDHT [ANKRD17], the protein stability index by setting is: (treatment: DMSO) 2.28 ± 0.24; (treatment: MLN4924 1 uM, 8 h) 2.46 ± 0.4.

Turning to ELQLSDLLKQGYNKTLLRLRLRKE [PKD2L1], the protein stability index (treatment: DMSO) came out at 2.39 ± 0.26 and the protein stability index (treatment: MLN4924 1 uM, 8 h) worked out at 2.76 ± 0.24. In turn, CCTHNNSATLSWKQPPLSTVPADG [TRIM9] yielded a protein stability index (treatment: DMSO) of 3.09 ± 0.073 and a protein stability index (treatment: MLN4924 1 uM, 8 h) of 3.02 ± 0.088. With KEQLSNDRETQEGKPPTAHLDRTS [ELOA2], the protein stability index is 5.56 ± 0.32 (treatment: DMSO) and 5.59 ± 0.16 (treatment: MLN4924 1 uM, 8 h).

For the origin of these results see the supplement of paper PMC10567573.
